These results are taken from patent publication US20090068174A1, “THERAPEUTIC ALKALINE PROTEASE COMPOSITIONS AND USE IN FACILITATING THE TRANSPORT OF AGENTS ACROSS THE GASTROINTESTINAL MUCOSAL LINING” (Kansas University Medical Center Research Institute, Inc., priority 2007, published 2009).

Data set [1] addresses T1, mouse recombinant IFN-γ (Mus musculus, UniProt P01580).
T1 sequence (P01580 23-155): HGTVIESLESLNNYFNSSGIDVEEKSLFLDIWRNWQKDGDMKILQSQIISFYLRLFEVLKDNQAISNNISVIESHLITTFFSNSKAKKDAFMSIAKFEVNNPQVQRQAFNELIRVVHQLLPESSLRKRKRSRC
Description: Cleavage of mouse IFN-γ (Western blotting). The class given is biochemical. The settings on record: 100 ng cytokine, 37° C. overnight, Western blot. How it is done: (§1) Degradation of mouse recombinant TNF-α: (A) or IFN-γ (B) following treatment with: the protease powder prepared according to Example 1 (preparation), purified alkaline protease (AP); Pseudomonas elastase (E); and buffered-treated control (C). The cytokines (100 ng each) were incubated at 37° C. overnight with the indicated quantities (ng) of enzymes, and then analyzed by Western blotting for evidence of degradation. A scan of AP-treated mouse TNF-α (left-hand Western blot) showing the decreasing density of the top band as a function of alkaline protease concentration (C).
(§2) Because the anti-TNF-α used here was specific for an epitope located in the carboxyl terminus of the cytokine, the pattern of cleavage is most consistent with attack at the amino terminus of TNF-α (e.g., there is a loss of molecular mass without a loss of the epitope recognized by the antibody).
(Immunoblotting shows a protein as a band on a membrane.)

In data set [2] the test system is established IBD. In words: Established IBD in the hapten model in SJL mice. It is filed as in vivo, mouse. How it is done: SJL mice can be given TNBS by enema for the induction of colitis, and their body weights can be monitored every 3 days. When there has been a decrease in body mass by at least 15% (typically day 7), the animals can be given either four i.p. injections of 10 μg alkaline protease every 12 hours (Group 1) or administered alkaline protease in their drinking water at a concentration found above to decrease IBD parameters (Group 2). A control group can be challenged with TNBS, but would not receive protease (Group 3). Body weights can then be monitored daily, and at the end of one week, mice are euthanized and tissues taken for scoring the various histopathological and immunohistochemical parameters as known in the art.

The nature of data set [3]: Protease stability and solubility in water. It is filed as physicochemical. Here is the method:
For determining the stability of the alkaline protease in drinking water over 0-4 days, proteases can be dissolved in autoclaved tap water at a concentration of 1 mg/ml and stored at either 25° C. or 4° C. At regular intervals (every 3 hours at 0-18 hours, every 8 hours at 18-24 hours, and every 12 hours at 24-96 hours), aliquots can be ascetically removed and tested for their ability to cleave protamine sulfate using a modification of the ninhydrin assay of Rosen. Results are expressed as % residual activity measured immediately after preparation of the protease solutions.

The target of data set [4] is T2, human IFN-γ (Homo sapiens, UniProt P01579).
T2 sequence (P01579 24-166): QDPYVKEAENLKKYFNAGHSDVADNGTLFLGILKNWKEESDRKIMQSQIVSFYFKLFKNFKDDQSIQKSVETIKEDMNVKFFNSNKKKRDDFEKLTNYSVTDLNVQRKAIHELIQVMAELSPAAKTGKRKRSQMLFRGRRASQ
Description: Fc receptor-inducing activity of protease-treated human IFN-γ on U937 cells. The settings on record: Table 7 summary. The class given is cell-based. Further details: key: +: Indicates that the protease inactivated the cytokine; ^a: Cleavage of the cytokine occurred without inactivation. How it is done: Effects of the purified A. oryzae proteases on the Fc receptor-inducing activity of human IFN-γ. Samples of the cytokine were first treated with the indicated Pseudomonas or fungal proteases: Elastase (∘); Preparation ([…]); Alkaline Protease (□); Deuterolysin (▪); and 26 kDa Protease (Δ). The treated samples were added to human promyelocytic U937 cells to induce expression of Fc receptors for IgG, which was detected by flow cytometry. The results are plotted either as a decrease in of mean channel fluorescence (A) or a decrease in % positive cells (B) plotted against increasing protease amounts.
Samples of the cytokine were first treated with the indicated Pseudomonas or fungal proteases: Elastase (∘); Preparation ([…]); Alkaline Protease (□); Deuterolysin (▪); and 26 kDa Protease (Δ). The treated samples were added to human promyelocytic U937 cells to induce expression of Fc receptors for IgG, which was detected by flow cytometry. The results are plotted either as a decrease in of mean channel fluorescence (A) or a decrease in % positive cells (B) plotted against increasing protease amounts.

Data set [5] addresses T3, mouse recombinant TNF-α (Mus musculus, UniProt P06804).
T3 sequence (P06804 80-235 limits assumed): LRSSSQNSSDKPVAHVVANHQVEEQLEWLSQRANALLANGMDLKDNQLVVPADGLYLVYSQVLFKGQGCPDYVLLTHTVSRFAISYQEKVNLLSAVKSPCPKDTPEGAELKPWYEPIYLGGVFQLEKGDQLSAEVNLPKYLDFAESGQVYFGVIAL
Description: Cleavage of mouse TNF-α (Western blotting). The note with it: 100 ng cytokine, 37° C. overnight, Western blot. It is filed as biochemical. How it is done: as §1, §2

The conditions of data set [6]: Table 1; cited from earlier work.
The target of data set [7] is T4, TNF-α (Mus musculus, UniProt P06804).
T4 sequence (P06804 80-235 limits assumed): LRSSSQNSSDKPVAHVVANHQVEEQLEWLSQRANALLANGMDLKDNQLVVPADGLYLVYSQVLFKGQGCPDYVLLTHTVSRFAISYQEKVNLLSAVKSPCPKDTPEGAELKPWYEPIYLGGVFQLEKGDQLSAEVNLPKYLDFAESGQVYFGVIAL
In words: Pretreatment of mice with protease before TNF-α challenge, activated caspase-3 in intestine. The class given is in vivo. How it is done: In this figure, various amounts of deutrolysin and alkaline protease were administered to mice 15 min prior to challenge with TNF-α. Intestinal tissues were again recovered 1 h later and the expression of activated caspase-3 was measured. […] (B) The ability of AP to provide protection against the apoptotic effects of TNF-α in vivo was limited in its duration. Thus, pretreatment of the mice for up to 30 min prior to TNF-α challenge prevented caspase-3 activation, whereas delaying cytokine challenge beyond 30 min diminished the protective effect of the protease.
A modification of this experiment was then performed by injecting various amounts of the proteases for 15 min prior to challenge with TNF-α (FIG. 22). Intestinal tissues were again recovered 1 h later and the expression of activated caspase-3 was measured. […]
Mice were injected i.p. with 5 ng of recombinant mouse TNF-α or protease-treated TNF-α, and 2 cm segments of their duodenums were collected 1 h later. […] The sections were first treated with rabbit antibody to activated (cleaved) mouse caspase-3, and bound antibody was detected using a Histostain-SP kit. For each mouse, tissues were scored by enumerating the number of sections in which less than 10%, 10-50%, or >50% of the intestinal villi expressed activated caspase-3. At least 48 sections were analyzed in this fashion from each mouse.

B1: Alkaline Protease: Aspergillus oryzae alkaline protease (oryzin), SEQ ID NO: 2, purified from the protease powder of Example 1 (protein, listed as Aspergillus oryzae)
chain: MQSIKRTLLLLGAILPAVLGAPVQETRRAAEKLPGKYIVTFKPGIDEAKIQEHTTWATNIHQRSLERRGATGGDLPVGIERNYKINKFAAYAGSFDDATIEEIRKNEDVAYVEEDQIYYLDGLTTQKSAPWGLGSISHKGQQSTDYIYDTSAGEGTYAYVVDSGVNVDHEEFEGRASKAYNAAGGQHVDSIGHGTHVSGTIAGKTYGIAKKASILSVKVFQGESSSTSVILDGFNWAANDIVSKKRTSKAAINMSLGGGYSKAFNDAVENAFEQGVLSVVAAGNENSDAGQTSPASAPDAITVAAIQKSNNRASFSNFGKVVDVFAPGQDILSAWIGSSSATNTISGTSMATPHIVGLSLYLAALENLDGPAAVTKRIKELATKDWKDVKGSPNLLAYNGNA
Consider B1, for which the “Cleavage of mouse IFN-γ” value in data set [1] is “partial degrades mouse IFN-γ”. For the same molecule, the “Cleavage of mouse IFN-γ” value in data set [1] (listed as alkaline protease (AP)) was “evidenced the same substrate specificity”. Moreover, in data set [2], the “Effect on established IBD” value is “can reverse and/or lessen established IBD”. Further, the Solubility in water entry in data set [3] is listed as “soluble in water”. Besides, the “Stability of catalytic activity on storage” value in data set [3] (4° C. storage) is “stable with 4 °C storage for several weeks”. In data set [3] (for 2 days), the “Retention of activity in water” value was over 80%. In data set [4], the “Inactivation of Human IFN-γ” value is “+”. In addition, the “Cleavage of mouse TNF-α” value in data set [5] is on record as “evidenced the same substrate specificity”. For the same molecule, in data set [6], the “Heat stability (stable at)” value is 37 °C for 3 h and the pI is 6.53. Moreover, the “Pretreatment interval prior to TNF-α challenge that prevented caspase-3 activation” value in data set [7] was “up to 30 min”. Moreover, the “Effect of protease pretreatment on action of TNF-α in vivo (activated caspase-3)” value in data set [7] (protease 1-10 μg injected 15 min prior to TNF-α challenge, tissues 1 h later) is “blocked the action of TNF-α in vivo”.
